Measured values as given in the supplement of paper PMC12042874.
± gives the uncertainty stated by the source.

Assay: amyloid nucleation score (Sup35N fusion, yeast selection) (log enrichment); library NNK2; higher = more nucleation; inactive = no reads after selection
Method in brief: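 Libraries of peptides of 20 random codons fused to Sup35N were expressed in psi-negative yeast and induced 24 hours with 100 μM copper sulfate. Selection was 7 days at 30°C on medium lacking adenine and uracil, and plasmid inserts were Illumina-sequenced before and after selection. Nucleation score is the DiMSum log enrichment of output over input reads, centred on the mode score of non-aggregating sequences, and sequences with under 100 input reads were left out.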

In order of falling amyloid nucleation score:
1. ESHCYSGDTWLCLCLSLVTR  8.457 ± 0.034
2. FCCTLAIFSL  7.594 ± 0.024
3. FDNQFTLVVRGIVGTVYWCV  7.233 ± 0.065
4. FDTRITMMCALWTFPAT  7.15 ± 0.079
5. EKVDCSVLAGNNWTWVNISL  6.7 ± 0.079
6. DWRFRSGISISKYLVINLGD  5.79 ± 0.063
7. FARGNINLMVVFVFFDS  5.766 ± 0.049
8. DRHIVLSHSSGNLSRLLLAL  5.753 ± 0.055
9. EADELGLLVSIKCRAARRCW  5.743 ± 0.052
10. EGSCYIWGSMAITFNAHHDR  5.68 ± 0.077
11. DSCCIFIL  5.67 ± 0.058
12. FCIVQIMDVTVLGSTSATID  5.592 ± 0.054
13. FCSCWNSEFNENSFVWRNIL  5.35 ± 0.058
14. FDPSMSFNWCICSFELDWAG  5.321 ± 0.032
15. ELPMLGFVCNYSKHQLFIFY  5.04 ± 0.1
16. DSCFRVLHRTGFVFMSWLII  4.82 ± 0.082
17. FEIGGHIDCETGVCCGVAVM  4.56 ± 0.052
18. EIFIPCEWGIVIHQGHAVSQ  4.46 ± 0.076
19. ELFFCFKRLHGLMGYNDLES  4.13 ± 0.063
20. FFSMRVIIMFERNSSVFAVQ  4.1 ± 0.11
21. FCALWVQFRYRE  3.89 ± 0.1
22. ELCGLMAEPYRSHILGCGWT  3.67 ± 0.066
23. FGGIFCFSLYR  3.52 ± 0.071
24. FFTCFTYCDCHNPVMI  3.28 ± 0.12
25. EDFYAYFLIRRCVACAIIFL  3.02 ± 0.15
26. DQFSGNACSIIVLVSALACF  3.01 ± 0.17
27. FEIDCIKIVCKASYHGLSGT  2.99 ± 0.1
28. DPTGIGWIKEQSLVCCGGVS  2.84 ± 0.081
29. ETRVITGDVSDRF  2.55 ± 0.091
30. DVRFVTEFKSYRSCCKQSMF  2.42 ± 0.054
31. EREVCMFRLYAKRGPAVDWL  2.19 ± 0.21
32. ECIYIMFKACGLRDRFSQVF  1.84 ± 0.13
33. EWHVWVCIWGCGIEAWMLSW  1.84 ± 0.16
34. FFDSSCIFITHLL  1.77 ± 0.18
35. DSFIIASRL  1.69 ± 0.1
36. EFMGVSR  1.51 ± 0.52
37. DSTPLGYSVLLSWTLVQRNL  1.38 ± 0.54
38. DTWEELFKNRDNPRRKCVGL  1.32 ± 0.41
39. EYYFSTELGGVFTLY  1.18 ± 0.12
40. DSWLGRMTRDKGNASFRSAS  1.16 ± 0.46
41. FGCPIVPVISIGFPLYGVYY  1.1 ± 0.3
42. DSGVAHCANPCRPYREPVQS  1.09 ± 0.37
43. ESSLDCMRDANNKAAWVEVV  1.05 ± 0.23
44. FEGNGCSILWLSFCRWAQ  0.98 ± 0.4
45. FFRGSYTRAWH  0.967 ± 0.29
46. EVHGCYRAWDCMMVACVNAL  0.963 ± 0.53
47. ENNFYY  0.953 ± 0.26
48. FDHHRGGNTLMQGDLLVMDF  0.925 ± 0.67
49. EGSLPLGRSSCPGTLHDGMI  0.922 ± 0.34
50. EGMTMTHGAGQLMLGGTASV  0.904 ± 0.44
51. FFQQRCYVVFAIMTSSGADD  0.864 ± 0.12
52. DQLVLELHWTESILSYVVMP  0.816 ± 0.48
53. FDAMSSFLQYLLTHKMWVGD  0.799 ± 0.43
54. EDFMRCRVWVSRGLVPSWGS  0.747 ± 0.24
55. EALMMVYGWEKTD  0.733 ± 0.24
56. DRSSMTG  0.698 ± 0.21
57. ESYTIDCRVFGLRGKGSTRA  0.695 ± 0.46
58. FDLWIPGAVVEVIDMGSAAR  0.651 ± 0.44
59. EPTFWPRW  0.626 ± 0.35
60. ECTYNKSWHQTWVTTRHGSS  0.613 ± 0.23
61. ENIYRRLLVLELLVWSCRGK  0.569 ± 0.34
62. FCPMVLAFTSRGIATKNCGV  0.566 ± 0.74
63. EKMLF  0.528 ± 0.34
64. DRSSS  0.447 ± 0.31
65. EYSGLDVTDCQDT  0.44 ± 0.36
66. EILYYWPVNVICRKSVKDCI  0.434 ± 0.66
67. DPFSHGEASEWAHLIVSTCT  0.408 ± 0.22
68. EWFNRSRYKCHRRHVLMAMV  0.343 ± 0.8
69. FDQVWRCVASLRPIVLSCSS  0.322 ± 0.54
70. DQSGDQARNCKCFGSSL  0.298 ± 0.5
71. DQYYNH  0.29 ± 0.77
72. EKQKWYYLELREAAQC  0.284 ± 0.2
73. ENLPGWLLVKMVQYY  0.276 ± 0.54
74. DRTDVCWSSGHDHLDLCWMS  0.273 ± 0.25
75. ETGSRGAN  0.263 ± 0.25
76. EALYALLSGGASNLKSHRLL  0.26 ± 0.65
77. EGFKYWIDKGSSGTVCVKST  0.249 ± 0.65
78. ERDSSALRMAYSICHGNSVV  0.232 ± 0.56
79. DRTKNFLCMMKRGFLSKIPW  0.227 ± 0.56
80. DVLFDITNNGHSSLLAAV  0.224 ± 0.8
81. EGNNCW  0.22 ± 0.23
82. ETGCLRARAVATGVLGRREK  0.171 ± 0.65
83. DSYMKRLWCRAARDRTESVW  0.159 ± 0.46
84. ELLIHDEYDILMCN  0.136 ± 0.36
85. EAVNGWALLHIVSQ  0.111 ± 0.33
86. ETFVYYFNVSSLVT  0.11 ± 0.38
87. EYSYVVGMFREIVDTRTVFV  0.107 ± 0.2
88. FAYSLTPFRWSRDLLMSPLG  0.104 ± 0.28
89. DRIAETSRYKRSENSLSLV  0.099 ± 0.53
90. EGAVLRLALGVGTNLNQLSV  0.098 ± 0.37
91. FCRDLVSGLIMTMPLCTDEM  0.079 ± 0.5
92. DWNTWTSNFLALTGAWTGLG  0.062 ± 0.77
93. ERIHSSCNYTFAFLLGFMSV  0.053 ± 0.54
94. DSWFGRFYDEESSWCWAMVR  0.039 ± 0.36
95. DPQRVFFWLPYMNLYQHEPF  0.025 ± 1.1
96. FEGSLPVPDGEEAWCAQRMS  -0.006 ± 0.45
97. DYMDAYGYINRGDPGLIVEV  -0.013 ± 0.53
98. ELVGYNVVGAIGSQ  -0.022 ± 0.26
99. FDVLMRSTGRANKKFLVCRQ  -0.033 ± 0.38
100. DQSFLF  -0.039 ± 0.39
101. EMSPSLMELFHACVVLVRFG  -0.051 ± 0.37
102. FEIWWLVGVVFWMVSGVNTV  -0.074 ± 0.22
103. DQCPFFSVWWSSLDYSWM  -0.094 ± 1
104. FDYLVNIRHGCTWCRTTI  -0.108 ± 0.4
105. DWHYIEKWT  -0.12 ± 0.49
106. DTRKFLDKLYA  -0.13 ± 0.44
107. DVAGKL  -0.151 ± 0.39
108. ESTAWAQVIPDNRLCGRNCR  -0.153 ± 1.1
109. FDSPYPMPMSHSVNSSLIIW  -0.155 ± 0.3
110. DTPGHGNACSKIRP  -0.159 ± 0.55
111. EYNRTLWSCYHWFVHVPPTN  -0.171 ± 1
112. EIYGFLVIICLLYGSLVSRW  -0.2 ± 0.45
113. ERRRYLALLQMSMCATGLCY  -0.219 ± 0.43
114. ECNQCWNMGMM  -0.252 ± 0.76
115. DVCYCRKPTINALRWLMMYA  -0.27 ± 1.1
116. ESRIYYVKQYSCLSTLTMVR  -0.283 ± 0.35
117. FFCSSRPDE  -0.286 ± 0.8
118. FEAFLSMWIFAPECLRAHSV  -0.288 ± 1.1
119. DSSLNIGVLPIVTNGLTKCD  -0.29 ± 0.28
120. DSVFVFGSHLFLQNSVRGRT  -0.295 ± 0.24
121. EGTRIDLVKRRVNLWCI  -0.296 ± 0.76
122. EHTFLFA  -0.297 ± 1.1
123. FAPSSIDFYRGSKNGLFTAQ  -0.302 ± 0.4
124. FCLFFLASQIIVMGVTTYTG  -0.313 ± 0.76
125. FCVCARWCIVVSGLVCDLRY  -0.323 ± 0.63
126. DYVNGGCLKFKNWRWKFSLS  -0.349 ± 0.48
127. FGADNGSPRSE  -0.354 ± 0.76
128. EYRGSVWLAGS  -0.379 ± 0.29
129. EAKFGKLKGYKCTVTGECSC  -0.391 ± 0.36
130. DTKRVSINVRDNVTLRSFSW  -0.392 ± 0.33
131. EFCSYDGCYFIASMAFVDTR  -0.393 ± 1.1
132. EMYFALLVLFVLGGFSM  -0.409 ± 0.76
133. ERNYVT  -0.525 ± 1.1
134. FFESCRLVNFELLVLSFFIG  -0.527 ± 0.28
135. DTVYAF  -0.651 ± 1.1
136. DSFLLTPDLRDMYEL  -0.681 ± 0.26
137. EGRVHTSLLVVCVTHTRKYM  -0.688 ± 0.42
138. DSSCFIIRLHSEFMLGSRSF  -0.715 ± 0.79
139. DRIQDQRIGYVVEFSIEKVS  -0.742 ± 0.28
140. EVDSVNVSLCVS  -0.796 ± 0.64
141. FCYQMSEVWIWCKFIFSI  -1 ± 1.1
142. ECVRTLFYKLMTFAWLELRS  -1.02 ± 0.76
143. EFFCAHLRADLVLKKNRVVF  -1.05 ± 0.78
144. FDLVGDGYCNYALEYTRLNM  -1.15 ± 1.1
145. EGCRMLNIYLPDFLSFLDTG  -1.16 ± 0.78
146. DTCWEGCLTKTYFW  -1.29 ± 0.75
147. FARLGLSSQHRRLIVC  -1.31 ± 0.54
148. FFDSLGAGRYNRIRRWLSVV  -1.33 ± 0.44
149. ERIFGFI  -1.45 ± 0.55
150. EWRKPGFVRGLRLNCVLRYF  -1.51 ± 0.78
151. FFTIVMRRSILFCIFLVIDA  -1.6 ± 0.49
152. FFNMMSK  -1.72 ± 0.62
153. FCILYSVFNGRLRYAFGDAS  -2.06 ± 0.62
154. FFSVHEDRREKYLSNNV  -2.15 ± 1.1
155. FFVTAPIGMFSLD  -2.17 ± 0.44
156. EVSRKTDTGQLLSDHVFFMN  -2.23 ± 0.78

With DQIEIISLKNCTVG the amyloid nucleation score was “inactive”.
With DRESRFLYVYHSRY the amyloid nucleation score was “inactive”.
In the case of DRYYRISSFYFISMTKLWD, the amyloid nucleation score is reported as “inactive”.
In the case of DVFWKPVYARYFFHRVCMRE, the amyloid nucleation score is reported as “inactive”.
For DYIEKGFPGLPYHSCGSSTF, the amyloid nucleation score was “inactive”.
With DYVTVVGIILVLLLLNFNLG the amyloid nucleation score was “inactive”.
For EDFRGLIKL, the amyloid nucleation score was “inactive”.
With EEILHLVPINWGLYYYYTFC the amyloid nucleation score was “inactive”.
With EEYIRRQGVLTASLVYSKYI the amyloid nucleation score was “inactive”.
With EGEITFGTFPYSEFVFECST the amyloid nucleation score was “inactive”.
In the case of EGMLGIHRAGFLDGRGKLGL, the amyloid nucleation score is reported as “inactive”.
For EICRY, the amyloid nucleation score was “inactive”.
With ELMDNFLVSFVGKHRVTRSS the amyloid nucleation score was “inactive”.
With ERILSFFF the amyloid nucleation score was “inactive”.
